The record followed here is IntAct's records for PubMed 21240188.

Sequences and labels used below:
B1: Fanconi anemia group J protein (Homo sapiens), Q9BX63 (parent)
chain: MSSMWSEYTIGGVKIYFPYKAYPSQLAMMNSILRGLNSKQHCLLESPTGSGKSLALLCSALAWQQSLSGKPADEGVSEKAEVQLSCCCACHSKDFTNNDMNQGTSRHFNYPSTPPSERNGTSSTCQDSPEKTTLAAKLSAKKQASIYRDENDDFQVEKKRIRPLETTQQIRKRHCFGTEVHNLDAKVDSGKTVKLNSPLEKINSFSPQKPPGHCSRCCCSTKQGNSQESSNTIKKDHTGKSKIPKIYFGTRTHKQIAQITRELRRTAYSGVPMTILSSRDHTCVHPEVVGNFNRNEKCMELLDGKNGKSCYFYHGVHKISDQHTLQTFQGMCKAWDIEELVSLGKKLKACPYYTARELIQDADIIFCPYNYLLDAQIRESMDLNLKEQVVILDEAHNIEDCARESASYSVTEVQLRFARDELDSMVNNNIRKKDHEPLRAVCCSLINWLEANAEYLVERDYESACKIWSGNEMLLTLHKMGITTATFPILQGHFSAVLQKEEKISPIYGKEEAREVPVISASTQIMLKGLFMVLDYLFRQNSRFADDYKIAIQQTYSWTNQIDISDKNGLLVLPKNKKRSRQKTAVHVLNFWCLNPAVAFSDINGKVQTIVLTSGTLSPMKSFSSELGVTFTIQLEANHIIKNSQVWVGTIGSGPKGRNLCATFQNTETFEFQDEVGALLLSVCQTVSQGILCFLPSYKLLEKLKERWLSTGLWHNLELVKTVIVEPQGGEKTNFDELLQVYYDAIKYKGEKDGALLVAVCRGKVSEGLDFSDDNARAVITIGIPFPNVKDLQVELKRQYNDHHSKLRGLLPGRQWYEIQAYRALNQALGRCIRHRNDWGALILVDDRFRNNPSRYISGLSKWVRQQIQHHSTFESALESLAEFSKKHQKVLNVSIKDRTNIQDNESTLEVTSLKYSTSPYLLEAASHLSPENFVEDEAKICVQELQCPKIITKNSPLPSSIISRKEKNDPVFLEEAGKAEKIVISRSTSPTFNKQTKRVSWSSFNSLGQYFTGKIPKATPELGSSENSASSPPRFKTEKMESKTVLPFTDKCESSNLTVNTSFGSCPQSETIISSLKIDATLTRKNHSEHPLCSEEALDPDIELSLVSEEDKQSTSNRDFETEAEDESIYFTPELYDPEDTDEEKNDLAETDRGNRLANNSDCILAKDLFEIRTIKEVDSAREVKAEDCIDTKLNGILHIEESKIDDIDGNVKTTWINELELGKTHEIEIKNFKPSPSKNKGMFPGFK

This experiment covers variants of B1. The note with it: with brca1_human BRCA1, P38398.
Sequence of brca1_human BRCA1, P38398 (P38398 whole entry, looked up): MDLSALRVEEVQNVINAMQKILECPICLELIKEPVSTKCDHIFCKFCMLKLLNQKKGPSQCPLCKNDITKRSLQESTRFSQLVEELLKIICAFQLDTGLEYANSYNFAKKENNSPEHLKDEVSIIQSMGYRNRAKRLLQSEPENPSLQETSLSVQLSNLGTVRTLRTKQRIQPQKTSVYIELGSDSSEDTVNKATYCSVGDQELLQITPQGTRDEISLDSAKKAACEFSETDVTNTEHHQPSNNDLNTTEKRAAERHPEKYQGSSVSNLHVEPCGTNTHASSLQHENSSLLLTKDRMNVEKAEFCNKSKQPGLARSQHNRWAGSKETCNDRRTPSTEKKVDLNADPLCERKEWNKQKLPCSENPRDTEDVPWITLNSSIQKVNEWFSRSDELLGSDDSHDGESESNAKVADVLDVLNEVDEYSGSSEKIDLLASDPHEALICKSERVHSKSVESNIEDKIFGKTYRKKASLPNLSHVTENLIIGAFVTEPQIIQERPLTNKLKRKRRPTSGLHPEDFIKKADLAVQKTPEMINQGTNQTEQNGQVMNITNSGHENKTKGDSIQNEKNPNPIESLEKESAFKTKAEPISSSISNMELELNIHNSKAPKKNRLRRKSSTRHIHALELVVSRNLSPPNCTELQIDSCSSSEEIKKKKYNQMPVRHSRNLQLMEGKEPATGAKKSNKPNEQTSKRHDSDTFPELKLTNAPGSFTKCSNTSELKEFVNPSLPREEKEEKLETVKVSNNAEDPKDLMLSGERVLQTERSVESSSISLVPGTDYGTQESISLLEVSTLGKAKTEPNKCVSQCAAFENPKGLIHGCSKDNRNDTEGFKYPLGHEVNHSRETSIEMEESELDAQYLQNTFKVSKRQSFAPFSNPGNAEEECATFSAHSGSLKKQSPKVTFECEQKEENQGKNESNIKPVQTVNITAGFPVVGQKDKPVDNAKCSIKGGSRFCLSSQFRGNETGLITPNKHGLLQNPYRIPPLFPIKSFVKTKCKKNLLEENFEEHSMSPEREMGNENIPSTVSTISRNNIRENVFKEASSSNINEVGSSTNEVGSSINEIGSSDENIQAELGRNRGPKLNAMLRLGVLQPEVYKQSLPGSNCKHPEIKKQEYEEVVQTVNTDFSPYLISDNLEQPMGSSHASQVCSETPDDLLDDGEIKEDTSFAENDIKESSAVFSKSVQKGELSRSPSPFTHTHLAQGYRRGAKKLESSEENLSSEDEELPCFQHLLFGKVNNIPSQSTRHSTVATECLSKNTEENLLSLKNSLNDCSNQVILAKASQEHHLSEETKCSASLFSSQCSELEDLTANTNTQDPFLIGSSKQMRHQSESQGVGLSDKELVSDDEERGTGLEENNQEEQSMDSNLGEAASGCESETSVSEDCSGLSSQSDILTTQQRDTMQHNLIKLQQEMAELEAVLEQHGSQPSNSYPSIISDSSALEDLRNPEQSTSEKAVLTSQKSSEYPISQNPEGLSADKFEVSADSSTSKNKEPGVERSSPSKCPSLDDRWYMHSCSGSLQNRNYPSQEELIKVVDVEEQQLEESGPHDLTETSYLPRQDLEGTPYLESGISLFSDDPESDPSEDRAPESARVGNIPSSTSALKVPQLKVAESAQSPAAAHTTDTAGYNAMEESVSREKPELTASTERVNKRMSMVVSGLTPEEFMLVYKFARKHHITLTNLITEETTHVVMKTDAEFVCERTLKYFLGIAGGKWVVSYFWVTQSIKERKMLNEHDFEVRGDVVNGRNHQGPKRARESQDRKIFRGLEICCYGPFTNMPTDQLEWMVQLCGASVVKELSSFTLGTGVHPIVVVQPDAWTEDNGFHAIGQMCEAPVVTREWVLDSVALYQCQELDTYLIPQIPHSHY
Regarding S990A, the “effect of a mutation on the interaction” value is given as “disrupting interaction”.
